Measurements published in doi:10.1101/2021.02.17.431743 (bioRxiv, 2021).

B1: HENV-103 human monoclonal antibody (antibody, V domains shown)
VH: QVQLQGSGPGLVKPSQTLSLTCSVSGGSVSRSGYYWGWIRQHPGKGLECIGYIYYSGITYYNPSLSGRLTISVDTSKNQFSLELSSVTAADTAVYYCARVWLGGGVFDFWGQGSLVTVSS
VL: EIVMTQSPATLSVSPGEGATLSCRASQSVSSNLAWYQQKPGQAPRLLIYDASTRATGIPARFSGSGSGTEFTLTISSLQSEDFAVYYCQQYNDWRTFGRGTKVEMR
B2: HENV-117 human monoclonal antibody (antibody, V domains shown)
VH: QVQLQQWGAGLLKPSETLSLTCDLSGGSFTNYYWTWIRHLPGKGLEWLGEINHSGRTNYSPSLKSRVTISVDTSKNQFSLRLSSVTAADTAVYYCARDIRKLAPKPHSYDLYYGMDVWGQGTTVTVSS
VL: EIVLTQSPGTLSLSPGERATLSCRASQSVGSNYLTWYQQKPGQPPRLLIYGASNRAAGIPDRFSGSGSGTDFTLTISRLEPEDFAVYYCQQYETSSRTFGQGTKVDIR

Target: full-length HeV-RBP (Hendra virus receptor binding protein); head, stalk, transmembrane, and cytoplasmic … (Hendra virus, UniProt O89343)
Sequence (O89343 whole entry): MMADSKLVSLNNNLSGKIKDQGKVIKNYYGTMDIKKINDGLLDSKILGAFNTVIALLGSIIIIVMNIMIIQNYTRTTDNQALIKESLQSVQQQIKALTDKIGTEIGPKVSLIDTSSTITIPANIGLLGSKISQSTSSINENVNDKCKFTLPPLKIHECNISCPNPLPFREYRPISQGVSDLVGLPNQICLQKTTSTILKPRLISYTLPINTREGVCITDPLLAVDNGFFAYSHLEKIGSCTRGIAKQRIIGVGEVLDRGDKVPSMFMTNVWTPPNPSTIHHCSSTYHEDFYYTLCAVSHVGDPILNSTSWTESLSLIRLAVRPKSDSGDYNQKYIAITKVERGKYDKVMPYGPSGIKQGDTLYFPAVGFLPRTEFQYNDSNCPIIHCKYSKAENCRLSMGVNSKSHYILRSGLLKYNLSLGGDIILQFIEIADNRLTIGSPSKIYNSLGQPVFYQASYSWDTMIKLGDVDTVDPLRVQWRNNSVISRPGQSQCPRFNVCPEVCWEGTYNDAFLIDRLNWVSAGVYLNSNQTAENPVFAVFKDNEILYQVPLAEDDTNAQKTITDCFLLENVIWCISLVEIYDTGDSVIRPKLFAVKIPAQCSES
Assay: flow cytometry on cells

| Binder | binding result |
| --- | --- |
| B1 | binds |
| B2 | binds |
